From publication PMC5430844, “RRM domain of ALS/FTD-causing FUS characteristic of irreversible unfolding spontaneously self-assembles into amyloid fibrils” (Scientific Reports, 2017)

Legend:
[1] = biological target: the molecule itself; assay: time-lapsed intrinsic UV and visible fluorescence, ThT-binding fluorescence, far-UV CD and negative-stain EM of an incubated sample; RRM alone, 40 µM in 1 mM phosphate buffer pH 6.8, incubated at 25 °C up to 12 days; EM at 3, 6 and 10 days; monomer to amyloid fibrils
[2] = biological target: the molecule itself; assay: 1D 1H NMR line broadening and intensity loss; N-terminal LC domain alone, 40 µM, 25 °C, 1 mM phosphate buffer, pH 6.8 compared with pH 5.0; non-exchangeable protons over −0.4–1.8 ppm

Protein | binding result [1] | binding result [2]
FUS RRM domain (282–371) (domain or fragment, human, UniProt P35637 282-371, looked up, Fused in Sarcoma/Translocated in Sarcoma (FUS), 526 residues, RNA-recognition motif, residues 282-371 (N-terminal residue Ser282); Cloned by PCR from FUS cDNA into a modified pET28a; The introduction gives the RRM as 285–371, but the construct used is 282–371; also called FUS (282–371); RNA-recognition motif) SDNNTIFVQGLGENVTIESVADYFKQIGIIKTNKKTGQPMINLYTDRETGKLKGEATVSFDDPPSAKAAIDWFDGKEFSGNPIKVSFATR | binds | –
FUS N-terminal low-sequence complexity (LC) domain (1–267) (domain or fragment, human, UniProt P35637 1-267, looked up, Fused in Sarcoma/Translocated in Sarcoma (FUS), 526 residues, N-terminal LC domain, residues 1-267 (QGSY-rich prion-like region 1–165 and G-rich region 166–267); Cloned by PCR from FUS cDNA into a modified pET28a; also called N-terminal LC domain; FUS (1–267)) MASNDYTQQATQSYGAYPTQPGQGYSQQSSQPYGQQSYSGYSQSTDTSGYGQSSYSSYGQSQNTGYGTQSTPQGYGSTGGYGSSQSSQSSYGQQSSYPGYGQQPAPSSTSGSYGSSSQSSSYGQPQSGSYSQQPSYGGQQQSYGQQQSYNPPQGYGQQNQYNSSSGGGGGGGGGGNYGQDQSSMSSGGGSGGGYGNQDQSGGGGSGGYGQQDRGGRGRGGSGGGGGGGGGGYNRSSGGYEPRGRGGGRGGRGGMGGSDRGGFNKFGG | – | binds
